What was measured:
[1] = Storage stability of lyophilized HV1C3 at 60° C., pH with tartaric acid (Experiment Example 3); type: physicochemical; details: saccharose, mannitol
Protocol: Hirudin variant HV1C3, purified saccharose, and mannitol were dissolved in purified water to a final concentration of 6 mg/ml (0.86 mM), 1.6 mg/ml (4.7 mM), and 10 mg/ml (55 mM), respectively. The resulting solution was divided into four equal portions. Three of these portions were adjusted to pHs 5.0, 5.5, and 6.0 using 30 mM tartaric acid. The peptide solutions for which the pH was thus adjusted and the peptide solution without pH adjustment were filtered through a 0.22 μm membrane filter. The filtrates were filled into 6 ml vials in the amount of 1 ml for each vial. 50 such vials were prepared for each pH of the solution, 200 vials in total. All these 200 vials were lyophilized.
The lyophilized samples were stored in an incubator at 60° C. and removed from the incubator after 1, 2, 3, 4, 5, 6, 7, and 8 weeks, respectively. 1 ml of purified water was added to each vial removed. Solutions further diluted 50-fold were used to measure the amount (percentage) of the hirudin variant HV1C3 remaining in the lyophilized sample in the same manner as in Experiment Example 1.

[2] = Storage stability of lyophilized HV1C3 at 60° C., tartaric acid concentration (Experiment Example 4); type: physicochemical
Protocol: Hirudin variant HV1C3 and purified saccharose were dissolved in purified water to a final concentration of 6 mg/ml (0.866 mM) and 1.6 mg/ml (4.7 mM), respectively. The resulting solution was divided into four equal portions. Three of these portions were adjusted to pH 5.5 using 5 mM of tartaric acid, 10 mM of tartaric acid, and 30 mM of tartaric acid, respectively. Mannitol was added to a solution without pH adjustment to a concentration of 10 mg/ml (55 mM). These solutions were filtered through a 0.22 μm membrane filter. The filtrates were filled into 6 ml vials in the amount of 1 ml for each vial. 50 such vials were prepared for each pH of the solution, 200 vials in total. All these 200 vials were lyophilized.
The lyophilized samples were stored in an incubator at 60° C. and removed from the incubator after 1, 2, 3, 4, 5, and 6 weeks, respectively. 1 ml of purified water was added to each vial removed. The amount (percentage) of the hirudin variant HV1C3 remaining in the lyophilized sample was determined in the same manner as in Experiment Example 1.

[3] = tartaric acid 0 mM, without pH adjustment, mannitol 10 mg/ml, saccharose
[4] = tartaric acid 5 mM, pH 5.5, saccharose
[5] = tartaric acid 10 mM, pH 5.5, saccharose
[6] = tartaric acid 30 mM, pH 5.5, saccharose

B1: hirudin variant HV1C3: Hirudin variant having the amino acid sequence shown by Sequence No. 1 (JP Laid-open No. 173798/1992) (protein)
chain: VVYTDCTESGQNLCLCEGSNVCGQGNKCILGSDGEKNQCVTGEGTPKPQSHNQGDFEPIPEDAYDE
In the case of B1, the “Remaining peptide (%) 1 wk” value ([1]; pH 5.0, 30 mM tartaric acid) is reported as 97.6%, the “Remaining peptide (%) 2 wks” value ([1]; pH 5.0, 30 mM tartaric acid) is reported as 96.1% and the “Remaining peptide (%) 3 wks” value ([1]; pH 5.0, 30 mM tartaric acid) is reported as 93.2%. The “Remaining peptide (%) 4 wks” value ([1]; pH 5.0, 30 mM tartaric acid) was 91.8%, the “Remaining peptide (%) 5 wks” value ([1]; pH 5.0, 30 mM tartaric acid) was 91.7% and the “Remaining peptide (%) 6 wks” value ([1]; pH 5.0, 30 mM tartaric acid) was 89.9%. For the same molecule, the “Remaining peptide (%) 7 wks” value ([1]; pH 5.0, 30 mM tartaric acid) was 69.1%, the “Remaining peptide (%) 8 wks” value ([1]; pH 5.0, 30 mM tartaric acid) was 86.6% and the “Remaining peptide (%) 1 wk” value ([1]; pH 5.5, 30 mM tartaric acid) was 98.4%. For the same molecule, the “Remaining peptide (%) 2 wks” value ([1]; pH 5.5, 30 mM tartaric acid) was 97.6%, the “Remaining peptide (%) 3 wks” value ([1]; pH 5.5, 30 mM tartaric acid) was 95.9% and the “Remaining peptide (%) 4 wks” value ([1]; pH 5.5, 30 mM tartaric acid) was 95.2%. The “Remaining peptide (%) 5 wks” value ([1]; pH 5.5, 30 mM tartaric acid) was 92.4%, the “Remaining peptide (%) 6 wks” value ([1]; pH 5.5, 30 mM tartaric acid) was 92.2% and the “Remaining peptide (%) 7 wks” value ([1]; pH 5.5, 30 mM tartaric acid) was 91.9%. For the same molecule, the “Remaining peptide (%) 8 wks” value ([1]; pH 5.5, 30 mM tartaric acid) was 90.6%, the “Remaining peptide (%) 1 wk” value ([1]; pH 6.0, 30 mM tartaric acid) was 98.4% and the “Remaining peptide (%) 2 wks” value ([1]; pH 6.0, 30 mM tartaric acid) was 97.6%. The “Remaining peptide (%) 3 wks” value ([1]; pH 6.0, 30 mM tartaric acid) was 96.6%, the “Remaining peptide (%) 4 wks” value ([1]; pH 6.0, 30 mM tartaric acid) was 96.1% and the “Remaining peptide (%) 5 wks” value ([1]; pH 6.0, 30 mM tartaric acid) was 94.6%. For the same molecule, the “Remaining peptide (%) 6 wks” value ([1]; pH 6.0, 30 mM tartaric acid) was 93.6%, the “Remaining peptide (%) 7 wks” value ([1]; pH 6.0, 30 mM tartaric acid) was 91.8% and the “Remaining peptide (%) 8 wks” value ([1]; pH 6.0, 30 mM tartaric acid) was 92.2%. For the same molecule, the “Remaining peptide (%) 1 wk” value ([1]; without pH adjustment) was 96.9%, the “Remaining peptide (%) 2 wks” value ([1]; without pH adjustment) was 94.2% and the “Remaining peptide (%) 3 wks” value ([1]; without pH adjustment) was 92.3%. The “Remaining peptide (%) 4 wks” value ([1]; without pH adjustment) was 90.9%, the “Remaining peptide (%) 5 wks” value ([1]; without pH adjustment) was 89.9% and the “Remaining peptide (%) 6 wks” value ([1]; without pH adjustment) was 88.2%. For the same molecule, the “Remaining peptide (%) 7 wks” value ([1]; without pH adjustment) was 87.2%, the “Remaining peptide (%) 8 wks” value ([1]; without pH adjustment) was 86.1% and the “Remaining peptide (%) 1 wk” value [2, 3] was 97.0%. The “Remaining peptide (%) 2 wks” value [2, 3] was 94.0%, the “Remaining peptide (%) 3 wks” value [2, 3] was 92.0% and the “Remaining peptide (%) 4 wks” value [2, 3] was 91.0%. For the same molecule, the “Remaining peptide (%) 5 wks” value [2, 3] was 87.8%, the “Remaining peptide (%) 6 wks” value [2, 3] was 86.5% and the “Remaining peptide (%) 1 wk” value [2, 4] was 98.8%. For the same molecule, the “Remaining peptide (%) 2 wks” value [2, 4] was 98.6%, the “Remaining peptide (%) 3 wks” value [2, 4] was 97.6% and the “Remaining peptide (%) 4 wks” value [2, 4] was 97.5%. The “Remaining peptide (%) 5 wks” value [2, 4] was 97.0%, the “Remaining peptide (%) 6 wks” value [2, 4] was 96.9% and the “Remaining peptide (%) 1 wk” value [2, 5] was 98.5%. For the same molecule, the “Remaining peptide (%) 2 wks” value [2, 5] was 98.1%, the “Remaining peptide (%) 3 wks” value [2, 5] was 97.2% and the “Remaining peptide (%) 4 wks” value [2, 5] was 96.9%. For the same molecule, the “Remaining peptide (%) 5 wks” value [2, 5] was 96.4%, the “Remaining peptide (%) 6 wks” value [2, 5] was 96.1% and the “Remaining peptide (%) 1 wk” value [2, 6] was 97.9%. For the same molecule, the “Remaining peptide (%) 2 wks” value [2, 6] was 96.8%, the “Remaining peptide (%) 3 wks” value [2, 6] was 96.1% and the “Remaining peptide (%) 4 wks” value [2, 6] was 94.7%. The “Remaining peptide (%) 5 wks” value [2, 6] was 94.1% and the “Remaining peptide (%) 6 wks” value [2, 6] was 93.5%.
